Assay results: patent US20230265179A1 (TWIST BIOSCIENCE, published 2023)

T1: CD40L (UniProt P29965 113-261, limits assumed)
T1 construct: SPR analyte
T1 sequence (looked up): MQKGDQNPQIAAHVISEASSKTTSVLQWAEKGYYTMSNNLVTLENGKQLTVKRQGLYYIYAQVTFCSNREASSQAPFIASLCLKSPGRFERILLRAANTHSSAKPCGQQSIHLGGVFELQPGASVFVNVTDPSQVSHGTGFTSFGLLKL

T2: CD40L over-expressed on Expi293 cells (UniProt P29965 1-261, limits assumed)
T2 construct: whole, on cells; also called cytokine over-expressing Expi293 cells
T2 sequence (looked up): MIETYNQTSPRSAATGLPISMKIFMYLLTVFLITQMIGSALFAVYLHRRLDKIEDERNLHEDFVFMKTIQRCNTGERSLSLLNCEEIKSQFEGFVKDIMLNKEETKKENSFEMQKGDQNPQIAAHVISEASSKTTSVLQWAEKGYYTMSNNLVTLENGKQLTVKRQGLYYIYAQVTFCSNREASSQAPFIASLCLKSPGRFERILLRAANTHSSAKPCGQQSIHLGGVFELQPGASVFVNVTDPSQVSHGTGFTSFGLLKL

T3: IL1RL1 over-expressed on Expi293 cells (UniProt Q01638 19-556, limits assumed)
T3 construct: whole, on cells; Target of the flow cytometry MFI ratio (over-expressing cells over parent cells); also called cytokine over-expressing Expi293 cells
T3 sequence (looked up): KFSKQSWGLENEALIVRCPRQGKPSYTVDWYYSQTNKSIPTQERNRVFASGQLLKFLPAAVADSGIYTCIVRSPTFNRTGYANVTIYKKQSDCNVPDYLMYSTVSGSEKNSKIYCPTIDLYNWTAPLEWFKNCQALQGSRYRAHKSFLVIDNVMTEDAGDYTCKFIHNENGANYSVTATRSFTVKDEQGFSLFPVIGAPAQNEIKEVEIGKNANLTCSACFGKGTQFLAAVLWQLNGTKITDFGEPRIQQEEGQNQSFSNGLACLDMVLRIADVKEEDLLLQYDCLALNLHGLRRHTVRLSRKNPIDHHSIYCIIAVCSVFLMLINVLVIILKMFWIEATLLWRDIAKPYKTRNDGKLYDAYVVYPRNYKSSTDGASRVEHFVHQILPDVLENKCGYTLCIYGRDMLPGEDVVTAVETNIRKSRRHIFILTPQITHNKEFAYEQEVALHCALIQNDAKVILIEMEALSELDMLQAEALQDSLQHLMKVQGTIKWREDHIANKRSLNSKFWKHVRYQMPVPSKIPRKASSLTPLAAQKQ


Tests used:
CD40L = biological target: T1, CD40L; assay: SPR (Carterra LSA), antibody amine-coupled, 1:1 model
Experimental: SPR experiments were performed on a Carterra LSA SPR biosensor equipped with a HC30M chip at 25° C. in HBS-TE. Antibodies were diluted to 10 μg/mL and amine-coupled to the sensor chip by EDC/NHS activation, followed by ethanolamine HCl quenching. Increasing concentrations of analyte were flowed over the sensor chip in HBS-TE with 0.5 mg/mL BSA with 5-minute association and 15-minute dissociation. Following each injection cycle the surface was regenerated with 2× 30-second injections of IgG elution buffer (Thermo). Data were analyzed in Carterra's Kinetics Tool software with 1:1 binding model.

[1] = biological target: T2, CD40L over-expressed on Expi293 cells; assay: flow cytometry, 100 nM antibody, CD40L-Expi293 vs parent Expi293 cells;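 note: ratio is the mean fluorescence intensity on CD40L-overexpressing Expi293 cells divided by the mean fluorescence intensity on parental Expi293 cells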
Experimental: (§1) All incubations and washes were in buffer containing PBS+1% BSA. MFI Ratio is defined by the mean fluorescence intensity (MFI) of the cytokine over-expressing Expi293 cell over the Expi293 parent cell. […] EC50 was calculated in GraphPad Prism.

[2] = biological target: T3, IL1RL1 over-expressed on Expi293 cells; assay: flow cytometry, 100 nM antibody, over-expressing Expi293 / parent cells
Experimental: as §1

Row | Binder | Kd (CD40L) | koff (CD40L) | kon (CD40L) | 100 nM FACS (MFI Ratio) [1] | 100 nM FACS (MFI Ratio) [2]
1 | CD40L-47 (VHH) VHH: EVQLVESGGGLVQPGGSLRLSCAASGRTLVNYDMGWFRQAPGKEREFVAAISMSGEDTIYADSVKGRFTISADNSKNTAYLQMNSLKPEDTAVYYCTTGGGTRDYWGQGTLVTVSS | 2.38 nM | 0.000536 s⁻¹ | 225000 M⁻¹ s⁻¹ | 41.8 ratio | –
2 | CD40L-25 (VHH) VHH: EVQLVESGGGLVQPGGSLRLSCAASGFTFSRYEMGWFRQAPGKEREFVAAVTEDGSINYADSVKGRFTISADNSKNTAYLQMNSLKPEDTAVYYCAAVYVSTWGNGYDWGQGTLVTVSS | 1.2 nM | 0.000176 s⁻¹ | 147000 M⁻¹ s⁻¹ | 93.2 ratio | –
3 | CD40L-57 (VHH) VHH: EVQLVESGGGLVQPGGSLRLSCAASGFTFSRYEMGWFRQAPGKEREFVATITEGGARNYADSVKGRFTISADNSKNTAYLQMNSLKPEDTAVYYCAAVYVSTWGNGYDWGQGTLVTVSS | 2.92 nM | 0.000769 s⁻¹ | 263000 M⁻¹ s⁻¹ | 64 ratio | –
4 | CD40L-51 (VHH) VHH: EVQLVESGGGLVQPGGSLRLSCAASGYFASWYYMGWFRQAPGKEREEVATFYTGDGRTYYADSVKGRFTISADNSKNTAYLQMNSLKPEDTAVYYCAAWLNGGNRWGQGTLVTVSS | ≤ 0.174 nM | ≤ 1e-05 s⁻¹ | 57600 M⁻¹ s⁻¹ | 76.6 ratio | –
5 | CD40L-28 (VHH) VHH: EVQLVESGGGLVQPGGSLRLSCAASGVTVDYSGMGWFRQAPGKEREFVSAISSYSGNTYYADSVKGRFTISADNSKNTAYLQMNSLKPEDTAVYYCAAAYGGGLYRDPRSYDWGQGTLVTVSS | 2.87 nM | 0.000445 s⁻¹ | 155000 M⁻¹ s⁻¹ | 41.9 ratio | –
6 | IL1RL1-80 (Fc fusion, not shown: a dimerising Fc or GST, VHH-Fc on IgG2 Fc) VHH: EVQLVESGGGLVQPGGSLRLSCAASGRTFSPIAMGWFRQAPGKEREMVAVIIDSRTTKYADSVKGRFTISADNSKNTAYLQMNSLKPEDTAVYYCAAVGGATTVTASEWDWGQGTLVTVSS | – | – | – | – | 1.49 MFI ratio
7 | IL1RL1-38 (Fc fusion, not shown: a dimerising Fc or GST, VHH-Fc on IgG2 Fc) VHH: EVQLVESGGGLVQPGGSLRLSCAASGFTFSNHIMGWFRQAPGKERELVAVIIDSRTTKYADSVKGRFTISADNSKNTAYLQMNSLKPEDTAVYYCAAVGGATTVTASEWDWGQGTLVTVSS | – | – | – | – | 1.37 MFI ratio
8 | CD40L-41 (VHH) VHH: EVQLVESGGGLVQPGGSLRLSCAASGSTFSKHHAMGWFRQAPGKERELVASISSDNYTVYADSVKGRFTISADNSKNTAYLQMNSLKPEDTAVYYCAREAANYREPPLWGQGTLVTVSS | 8.47 nM | 0.000685 s⁻¹ | 80800 M⁻¹ s⁻¹ | 15.5 ratio | –
9 | CD40L-24 (VHH) VHH: EVQLVESGGGLVQPGGSLRLSCAASGGAFSVYAMGWFRQAPGKEREFLASISGSGGSTYYADSVKGRFTISADNSKNTAYLQMNSLKPEDTAVYYCARDGGTYGMDVWGQGTLVTVSS | 5.74 nM | 0.000824 s⁻¹ | 143000 M⁻¹ s⁻¹ | 42.7 ratio | –
10 | CD40L-36 (VHH) VHH: EVQLVESGGGLVQPGGSLRLSCAASGFSLDDYAMGWFRQAPGKEREFVASVNWSGKDTYYADSVKGRFTISADNSKNTAYLQMNSLKPEDTAVYYCARDGGTYGMDVWGQGTLVTVSS | 0.819 nM | 0.000353 s⁻¹ | 431000 M⁻¹ s⁻¹ | 59.2 ratio | –
11 | IL1RL1-85 (Fc fusion, not shown: a dimerising Fc or GST, VHH-Fc on IgG2 Fc) VHH: EVQLVESGGGLVQPGGSLRLSCAASGRTFSTAGMGWFRQAPGKEREWVASIITSGSTITPYADSVKGRFTISADNSKNTAYLQMNSLKPEDTAVYYCAVVDLLRGKLWGQGTLVTVSS | – | – | – | – | 4.47 MFI ratio
12 | CD40L-55 (VHH) VHH: EVQLVESGGGLVQPGGSLRLSCAASGLPFSTLHMGWFRQAPGKEREFVAAISRSGNLKAYADSVKGRFTISADNSKNTAYLQMNSLKPEDTAVYYCAADDYLGGDNWYLGPYDWGQGTLVTVSS | 10 nM | 0.0001 s⁻¹ | 10000 M⁻¹ s⁻¹ | 3.2 ratio | –
13 | CD40L-34 (VHH) VHH: EVQLVESGGGLVQPGGSLRLSCAASGRTISNAAMGWFRQAPGKEREFVAAISFRGDSAIYADSVKGRFTISADNSKNTAYLQMNSLKPEDTAVYYCARDAAGDYYYNLDVWGQGTLVTVSS | 9.87 nM | 0.000637 s⁻¹ | 64500 M⁻¹ s⁻¹ | 76.7 ratio | –

Other lines, results leading:

Row | Kd (CD40L) | koff (CD40L) | kon (CD40L) | 100 nM FACS (MFI Ratio) [1] | 100 nM FACS (MFI Ratio) [2] | Binder
14 | 11.5 nM | 0.000576 s⁻¹ | 50200 M⁻¹ s⁻¹ | 45.7 ratio | – | CD40L-46 (VHH) VHH: EVQLVESGGGLVQPGGSLRLSCAASGFTFSRYEMGWFRQAPGKEREWVASLYLNGDYPYYADSVKGRFTISADNSKNTAYLQMNSLKPEDTAVYYCAIPHGIAGRITWGQGTLVTVSS
15 | – | – | – | – | 476 MFI ratio | IL1RL1-34 (Fc fusion, not shown: a dimerising Fc or GST, VHH-Fc on IgG2 Fc) VHH: EVQLVESGGGLVQPGGSLRLSCAASGSTFSNAVMGWFRQAPGKEREFVAVIIDSRTTKYADSVKGRFTISADNSKNTAYLQMNSLKPEDTAVYYCAAVGGATTVTASEWDWGQGTLVTVSS
16 | – | – | – | – | 1.6 MFI ratio | IL1RL1-55 (Fc fusion, not shown: a dimerising Fc or GST, VHH-Fc on IgG2 Fc) VHH: EVQLVESGGGLVQPGGSLRLSCAASGEIASIIAMGWFRQAPGKERELVAVIIGGGSTNYADSVKGRFTISADNSKNTAYLQMNSLKPEDTAVYYCAAVGGATTVTASEWDWGQGTLVTVSS
17 | 8.61 nM | 0.00052 s⁻¹ | 60300 M⁻¹ s⁻¹ | 49 ratio | – | CD40L-38 (VHH) VHH: EVQLVESGGGLVQPGGSLRLSCAASGVTFSSYDMGWFRQAPGKEREFVAAINWSGGSRSYADSVKGRFTISADNSKNTAYLQMNSLKPEDTAVYYCAIPRFRPYEYDWGQGTLVTVSS
18 | ≤ 0.0842 nM | ≤ 1e-05 s⁻¹ | 119000 M⁻¹ s⁻¹ | 29.5 ratio | – | CD40L-35 (VHH) VHH: EVQLVESGGGLVQPGGSLRLSCAASGLTFSSYWMGWFRQAPGKERELVASITDGGSTNYADSVKGRFTISADNSKNTAYLQMNSLKPEDTAVYYCAVQVNGIWAWGQGTLVTVSS
19 | 2.63 nM | 0.000546 s⁻¹ | 208000 M⁻¹ s⁻¹ | 74.1 ratio | – | CD40L-33 (VHH) VHH: EVQLVESGGGLVQPGGSLRLSCAASGNIFINNAMGWFRQAPGKEREFVASIEWDGGGAYYADSVKGRFTISADNSKNTAYLQMNSLKPEDTAVYYCARDGGTYGMDVWGQGTLVTVSS
20 | 33.6 nM | 0.000801 s⁻¹ | 23800 M⁻¹ s⁻¹ | 4.7 ratio | – | CD40L-29 (VHH) VHH: EVQLVESGGGLVQPGGSLRLSCAASGRTFSSYAMGWFRQAPGKEREFVAVIYSSDGSTLYADSVKGRFTISADNSKNTAYLQMNSLKPEDTAVYYCAAEHTLGRPSRSQINYLWGQGTLVTVSS
21 | – | – | – | – | 473 MFI ratio | IL1RL1-28 (Fc fusion, not shown: a dimerising Fc or GST, VHH-Fc on IgG2 Fc) VHH: EVQLVESGGGLVQPGGSLRLSCAASGRTISRYTMGWFRQAPGKEREFVAGIWSGGYTHYADSVKGRFTISADNSKNTAYLQMNSLKPEDTAVYYCAAVSSNTEIFDWGQGTLVTVSS
22 | 0.194 nM | 6.25e-05 s⁻¹ | 322000 M⁻¹ s⁻¹ | 114 ratio | – | CD40L-39 (VHH) VHH: EVQLVESGGGLVQPGGSLRLSCAASGGTLDDYVMGWFRQAPGKEREFVASIGRSGNSAVNTDYADSVKGRFTISADNSKNTAYLQMNSLKPEDTAVYYCAREPYSGTYYPRYWGQGTLVTVSS
23 | 8.48 nM | 0.000998 s⁻¹ | 118000 M⁻¹ s⁻¹ | 68.4 ratio | – | CD40L-48 (VHH) VHH: EVQLVESGGGLVQPGGSLRLSCAASGFTFSRYEMGWFRQAPGKEREFVAAVTEGGTTSYADSVKGRFTISADNSKNTAYLQMNSLKPEDTAVYYCAAESLGRWWGQGTLVTVSS
